The target of this assay is Sushi domain of IL15Rα (aa1-66) fused to the CH2-CH3 of human IgG1 Fc. The experiment in a line: SEC. Background: SEC sorts molecules by how far they enter the pores of the column.

For orientation: stoichiometry N means the number of molecules, sites or subunits per partner or assembly.

Sequence of Sushi domain of IL15Rα (aa1-66) fused to the CH2-CH3 of human IgG1 Fc (Q13261 1-66): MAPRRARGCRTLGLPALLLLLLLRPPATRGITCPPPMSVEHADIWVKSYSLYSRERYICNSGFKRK

In turn, “Sushi domain of IL15Rα (aa1-66) fused to the CH2-CH3 of human IgG1 Fc (Fc fusion)” had a stoichiometry N of 2.

The values are drawn from paper PMC7954438.
